From patent US20070218463A1 (CANAG DIAGNOSTICS, published 2007)

Molecular target: T1, Cathepsin L (Calbiochem) (UniProt P07711 114-333, limits assumed)
T1 construct: Bought enzyme
Test: complex binding, 2 ug SCCA protein mixed with cathepsin, 37 C 30 min, SDS-PAGE
Protocol: Complex binding of SCCA to substrates was performed by mixing 2 μg of SCCA-protein with 0.5 μg of Cathepsin G (Biodesign Int.) or 0.5 μg of […] Cathepsin L (Calbiochem) in 1×PBS buffer in a total volume of 4.5 μl. Samples were incubated at 37° C. for 30 minutes. To each sample, 0.5 μl of 10× Complex-buffer (20% SDS, 140 mM Mercaptoethanol, bromophenolblue) was added. Samples were incubated for 3 minutes at 95° C. and analyzed on a 12.5% SDS-PAGE-gel. The SCCA1/A2 fusion protein forms a complex with Cathepsin G but not with Cathepsin L showing that the fusion protein is functional and has the substrate specificity of SCCA2 (FIG. 8).

T1 sequence (P07711 114-333 limits assumed): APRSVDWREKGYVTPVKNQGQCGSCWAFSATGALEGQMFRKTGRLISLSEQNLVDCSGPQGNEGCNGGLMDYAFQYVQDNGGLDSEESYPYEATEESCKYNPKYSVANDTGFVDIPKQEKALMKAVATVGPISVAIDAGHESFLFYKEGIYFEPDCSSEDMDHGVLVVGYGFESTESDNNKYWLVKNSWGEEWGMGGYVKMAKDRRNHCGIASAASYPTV

B1: SCCA1/SCCA2 fusion protein (other)
chain: MNSLSEANTKFMFDLFQQFRKSKENNIFYSPISITSALGMVLLGAKDNTAQQIKKVLHFDQVTENTTGKAATYHVDRSGNVHHQFQKLLTEFNKSTDAYELKIANKLFGEKTYLFLQEYLDAIKKFYQTSVESVDFANAPEESRKKINSWVESQTNEKIKNLIPEGNIGSNTTLVLVNAIYFKGQWEKKFNKEDTKEEKFWPNKNTYKSIQMMRQYTSFHFASLEDVQAKVLEIPYKGKDLSMIVLLPNEIDGLQKLEEKLTAEKLMEWTSLQNMRETCVDLHLPRFKMEESYDLKDTLRTMGMVNIFNGDADLSGMTWSHGLSVSKVLHKAFVEVTEEGVEAAAATAVVVVELSSPSTNEEFCCNHPFLFFIRQNKTNSILFYGRFSSP
notes: Recombinant serpin fusion (exons 2-7 of SCCA1 fused to exon 8 of SCCA2); also called SCCA1/A2; SCCA1/A2 fusion protein
binding result: no binding
